# Patent US20130225434A1 (BOARD OF TRUSTEES OF THE UNIVERSITY OF ILLINOIS, published 2013)
# Positions count from the first letter of the chain named. In names and notes the source's numbering stands. Square brackets hold non-standard residues; d marks the D form. * marks the point of attachment. Biotin = O=C1N[C@H]2[C@H](CS[C@H]2CCCCC(=O)*)N1; pY = N[C@@H](Cc1ccc(OP(=O)(O)O)cc1)C(=O)O; pT = C[C@@H](OP(=O)(O)O)[C@H](N)C(=O)O; pS = N[C@@H](COP(=O)(O)O)C(=O)O
# T1: BRCT-pS (SMILES …)
# T1 construct: also called Biotin-BRCT-pS
# T1 peptide: Biotin-SGSAYDI[pS]QVFPFAKKK-NH2
# T2: WT FHA1 domain of S. cerevisiae Rad53, phage-displayed (protein III fusion on bacteriophage M13) (Saccharomyces cerevisiae; bacteriophage …, UniProt P22216 1-170)
# T2 construct: not shown: minor coat protein III (pIII, gene III product) of bacteriophage M13
# T2 sequence: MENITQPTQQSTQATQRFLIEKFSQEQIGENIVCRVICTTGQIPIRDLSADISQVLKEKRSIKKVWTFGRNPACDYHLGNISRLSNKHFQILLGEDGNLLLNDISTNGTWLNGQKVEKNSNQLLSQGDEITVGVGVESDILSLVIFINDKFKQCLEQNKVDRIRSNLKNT
# T3: Rad9-pT peptide with SGS linker (SGS-SLEVpTEADATFYAKK) (yeast, SMILES …)
# T3 construct: also called cognate pT peptide; Rad-pT
# T3 peptide: Biotin-SGSSLEV[pT]EADATFYAKK-NH2
# B1: G9 variant of the FHA1 domain, phage-displayed (designed binder, not shown: large carriers; small tags and cut ends)
# chain: T2 sequence with Q13R, C34S, C38S, I104V, N121Y, C154S, R164S
# notes: From the library built on the 3C-3S template
# B2: C12 variant of the FHA1 domain, phage-displayed (designed binder, not shown: small tags and cut ends)
# chain: T2 sequence with C34S, C38S, W66R, C154S
# notes: as for B1
# B3: A7 variant of the FHA1 domain, phage-displayed (designed binder, not shown: small tags and cut ends)
# chain: T2 sequence with C34S, C38S, N121Y, C154S
# notes: as for B1
# B4: A10 variant of the FHA1 domain, phage-displayed (designed binder, not shown: small tags and cut ends)
# chain: T2 sequence with Q25H, C34S, C38S, N121Y, S142R, C154S
# notes: as for B1
# B5: 3C-3S variant of the FHA1 domain, GST fusion (other)
# chain: T2 sequence with C34S, C38S, C154S
# notes: Cell lysate used in the ELISA; not shown: The N-terminal GST of the pGEX-2T vector and the vector junction residues
# B6: D2 variant of the FHA1 domain, GST fusion (designed binder)
# chain: T2 sequence with C34F, C38S, C154S
# notes: as for B5
# B7: 4C-4S variant of the FHA1 domain, GST fusion (other)
# chain: T2 sequence with C34S, C38S, C74S, C154S
# notes: as for B5
# B8: Plk1-pT (peptide)
# peptide: Biotin-SGSAGPMQS[pT]PLNGAKK-NH2
# SMILES: CSCC[C@H](NC(=O)[C@@H]1CCCN1C(=O)CNC(=O)[C@H](C)NC(=O)[C@H](CO)NC(=O)CNC(=O)[C@H](CO)NC(=O)CCCC[C@@H]1SC[C@@H]2NC(=O)N[C@@H]21)C(=O)N[C@@H](CCC(N)=O)C(=O)N[C@@H](CO)C(=O)N[C@H](C(=O)N1CCC[C@H]1C(=O)N[C@@H](CC(C)C)C(=O)N[C@@H](CC(N)=O)C(=O)NCC(=O)N[C@@H](C)C(=O)N[C@@H](CCCCN)C(=O)N[C@@H](CCCCN)C(N)=O)[C@@H](C)OP(=O)(O)O
# B9: Rad9-pY (peptide)
# peptide: Biotin-SGSSLEV[pY]EADATFYAKK-NH2
# SMILES: CC(C)C[C@H](NC(=O)[C@H](CO)NC(=O)[C@H](CO)NC(=O)CNC(=O)[C@H](CO)NC(=O)CCCC[C@@H]1SC[C@@H]2NC(=O)N[C@@H]21)C(=O)N[C@@H](CCC(=O)O)C(=O)N[C@H](C(=O)N[C@@H](Cc1ccc(OP(=O)(O)O)cc1)C(=O)N[C@@H](CCC(=O)O)C(=O)N[C@@H](C)C(=O)N[C@@H](CC(=O)O)C(=O)N[C@@H](C)C(=O)N[C@H](C(=O)N[C@@H](Cc1ccccc1)C(=O)N[C@@H](Cc1ccc(O)cc1)C(=O)N[C@@H](C)C(=O)N[C@@H](CCCCN)C(=O)N[C@@H](CCCCN)C(N)=O)[C@@H](C)O)C(C)C
# B10: Rad9-pS (peptide)
# peptide: Biotin-SGSSLEV[pS]EADATFYAKK-NH2
# SMILES: CC(C)C[C@H](NC(=O)[C@H](CO)NC(=O)[C@H](CO)NC(=O)CNC(=O)[C@H](CO)NC(=O)CCCC[C@@H]1SC[C@@H]2NC(=O)N[C@@H]21)C(=O)N[C@@H](CCC(=O)O)C(=O)N[C@H](C(=O)N[C@@H](COP(=O)(O)O)C(=O)N[C@@H](CCC(=O)O)C(=O)N[C@@H](C)C(=O)N[C@@H](CC(=O)O)C(=O)N[C@@H](C)C(=O)N[C@H](C(=O)N[C@@H](Cc1ccccc1)C(=O)N[C@@H](Cc1ccc(O)cc1)C(=O)N[C@@H](C)C(=O)N[C@@H](CCCCN)C(=O)N[C@@H](CCCCN)C(N)=O)[C@@H](C)O)C(C)C
# B11: E (designed binder)
# FHA1 domain displayed on M13 protein III: T2 sequence with C34E, C38S, C154S
# notes: also called S34E
# B12: R (designed binder)
# FHA1 domain displayed on M13 protein III: T2 sequence with C34R, C38S, C154S
# notes: also called S34R
# B13: P (designed binder)
# FHA1 domain displayed on M13 protein III: T2 sequence with C34P, C38S, C154S
# notes: also called S34P
# B14: N (designed binder)
# FHA1 domain displayed on M13 protein III: T2 sequence with C34N, C38S, C154S
# notes: also called S34N
# B15: C (designed binder)
# FHA1 domain displayed on M13 protein III: T2 sequence with C38S, C154S
# notes: also called S34C
# B16: K (designed binder)
# FHA1 domain displayed on M13 protein III: T2 sequence with C34K, C38S, C154S
# notes: also called S34K
# B17: T (designed binder)
# FHA1 domain displayed on M13 protein III: T2 sequence with C34T, C38S, C154S
# notes: also called S34T
# B18: Q (designed binder)
# FHA1 domain displayed on M13 protein III: T2 sequence with C34Q, C38S, C154S
# notes: also called S34Q
# B19: G (designed binder)
# FHA1 domain displayed on M13 protein III: T2 sequence with C34G, C38S, C154S
# notes: also called S34G
# B20: D (designed binder)
# FHA1 domain displayed on M13 protein III: T2 sequence with C34D, C38S, C154S
# notes: also called S34D
# B21: H (designed binder)
# FHA1 domain displayed on M13 protein III: T2 sequence with C34H, C38S, C154S
# notes: also called S34H
# Biological target: T1, BRCT-pS
# Assay: phage ELISA; biotinylated peptide on Neutravidin, A405
# Protocol: FIG. 9A is a photograph of 96-well plates containing phage supernatants from 96 individual clones, which were isolated after three rounds of selection, heated (50° C.), cooled, and added to microtiter plate wells coated with the phosphopeptide ligand. Binding of phage particles in the wells was monitored with an anti-M13 antibody conjugated to HRP. FIG. 9B is a graph showing the ratio of the ELISA signals for individual phage clones generated with wells contained with the target protein compared to a negative control protein (background).
# Phage particles produced from 96 clones isolated after round #3, were heated at 50° C. for 3 hr and cooled to RT. The phage supernatants were then incubated with both the target peptide (500 ng/well) immobilized on NeutrAvidin (1 μg/well) coated plate wells and an unrelated target (background). Binding phage clones were detected using anti-M13 antibody conjugated to HRP (GE Healthcare). The green, colored product of the enzymatic reaction in the microtiter plate wells was measured at 405 nm using the FLUOstar OPTIMA plate reader (BMG Labtech). […] In some cases, the signal over background ratio ranged from 3 to 20 for clones (FIG. 9B).
row,Binder,binding result
1,B1,no binding
2,B2,no binding
3,B3,no binding
4,B4,no binding

# Biological target: T1, BRCT-pS
# Assay: ELISA with GST fusion (cell lysate); biotinylated peptide on Neutravidin; anti-GST-HRP, A405 [b]
row,Binder,binding result
1,B5,no binding
2,B6,no binding
3,B7,no binding

# Biological target: T2, WT FHA1 domain of S. cerevisiae Rad53, …
# Assay: phage ELISA; biotinylated peptide on Neutravidin; anti-M13-HRP, A405 [a]
# From the text: Binding of phage particles was detected using anti-M13 antibody conjugated to HRP. FIG. 4(b) is a graph of the results of ELISA experiments of GST fusions of the WT FHA1 domain and three of its variants, 3C-3S, 4C-4S, and D2, that bound specifically to the cognate pT peptide (Rad9-pT; shown as solid histograms) immobilized on plastic microtiter plate wells via Neutravidin. Binding was detected using anti-GST antibody conjugated to HRP. The peptide sequences for Rad9-pT, Rad9-T, Rad9-pS, Rad9-pY, Plk1-pT and BRCT-pS are SGSSLEVp[…] (SEQ ID NO: 1), […] (SEQ ID NO: 2), SGSSLEVp[…] (SEQ ID NO: 3), SGSSLEVp[…] (SEQ ID NO: 4), […]p[…] (SEQ ID NO: 5) and SGSAYDIp[…] (SEQ ID NO: 6), respectively. The peptide sequence for the WT FHA1 domain from S. cerevisiae Rad53 protein kinase includes […] (SEQ ID NO:7), which includes residues 1-170 of S. cerevisiae Rad53 (SEQ ID NO:8) (Liao et al. (2000) J. Mol. Biol 304, 941-51; Durocher et al. (1999) Mol Cell 4). […] The β-strands are labeled from 1 to 11 in the WT FHA1 domain structure and the N- and C-termini are noted.
row,Binder,binding result
1,B8,no binding
2,B9,no binding
3,B10,no binding

# Biological target: T3, Rad9-pT peptide with SGS linker …
# Assay: phage ELISA on immobilized Rad9-pT, phage normalised to the Flag epitope; anti-M13-HRP, A405
# From the text: Through Kunkel mutagenesis (Yaffe (2002) Nat Rev Mol Cell Bol 3, 177-86), the amino acid residue at position 34 in the β1 strand of the D2 FHA 1 domain was replaced (from the naturally-occurring V) one at a time with each of the other naturally occurring amino acids and binding to the immobilized Rad9-pT peptide was monitored by phage ELISA. Phage binding was detected using anti-M13 antibody conjugated to Horse Radish Peroxidase (HRP). […] All the variants display an N-terminal Flag peptide and the amount of phage particles used for each variant in this experiment has been normalized for this epitope.
# To amplify the phage particles displaying the recombinant FHA1 variants, TG1 bacterial cells (5 mL; Stratagene) harboring the phagemid DNA were infected at mid-log (OD₆₀₀ₙₘ=0.5-0.6) with M13K07 helper phage (New England Biolabs) at a multiplicity of infection (MOI) of 20 for 1 h at 37° C. at 150 rpm. Infected cells were centrifuged, and the pellet was resuspended in fresh Luria Bertani medium (LB: 10 g Tryptone, 5 g Yeast extract, and 10 g NaCl per liter) supplemented with 50 μg/mL carbenicillin and 50 μg/ml kanamycin, and phage were amplified overnight at 30° C. at 250 rpm. All of the phage ELISA steps were performed at room temperature. Biotinylated peptides (100 μL, 5 μg/mL) were immobilized on Nunc MaxiSorp flat-bottom 96 well plates (Thermo Fisher Scientific) via NeutrAvidin™ Biotin binding protein (100 μL, 10 μg/mL; Thermo Fisher Scientific) and blocked with 2% skim milk in 1×PBS (200 μL per well).
row,Binder,binding result
1,B11,no binding
2,B12,no binding
3,B13,no binding
4,B14,no binding
5,B15,no binding
6,B16,no binding
7,B17,no binding
8,B18,no binding
9,B19,no binding
10,B20,no binding
11,B21,no binding
